{
  "source": "paper PMC9655291",
  "key": {"[1]": {"target": "eel FSHR-N272Q (eel)"}, "[2]": {"target": "eel follicle-stimulating hormone receptor wild-type (eel)"}, "[3]": {"target": "eel FSHR-N288Q (eel)"}, "[4]": {"target": "eel FSHR-N120Q (eel)"}},
  "data": [
    {"substance": "recombinant eel FSH (tethered eel FSH β/α) (ligand)", "values": [
      {"measurement": "EC50 of cAMP accumulation (HTRF) in transfected CHO-K1 cells stimulated with rec-eel FSH, 0.01-1500 ng/mL", "setting": "[1]", "result": 0.327, "unit": "µg/mL"},
      {"measurement": "EC50 of cAMP accumulation (HTRF) in transfected CHO-K1 cells stimulated with rec-eel FSH, 0.01-1500 ng/mL", "setting": "[2]", "result": 0.201, "unit": "µg/mL"},
      {"measurement": "EC50 of cAMP accumulation (HTRF) in transfected CHO-K1 cells stimulated with rec-eel FSH, 0.01-1500 ng/mL", "setting": "[3]", "result": 0.281, "unit": "µg/mL"},
      {"measurement": "EC50 of cAMP accumulation (HTRF) in transfected CHO-K1 cells stimulated with rec-eel FSH, 0.01-1500 ng/mL", "setting": "[4]", "result": 0.283, "unit": "µg/mL"}
    ]}
  ]
}
